biological target: AHNAK1, Q09666; assay: holdup assay; design: key: below the threshold = too weak to quantify, mostly under pKd 3.1 to 4; details: plain residues with an end cap or a label only (N-terminal biotin on a linker: ado-ado)
Sequence (Q09666 4-100): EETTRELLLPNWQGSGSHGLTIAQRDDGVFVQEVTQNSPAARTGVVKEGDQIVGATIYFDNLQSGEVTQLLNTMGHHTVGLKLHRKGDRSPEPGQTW

Binder	pKd
IKLETKKTKL [SLC15A2, Q16348]	below the threshold
PLATCDETSI [SEMA4F, O95754]	below the threshold

biological target: T1, APBA3_1, O96018; assay: holdup assay; design: key: below the threshold = too weak to quantify, mostly under pKd 3.1 to 4; details: plain residues with an end cap or a label only (N-terminal biotin on a linker: ado-ado)
T1 sequence (O96018 389-490, limits assumed, looked up): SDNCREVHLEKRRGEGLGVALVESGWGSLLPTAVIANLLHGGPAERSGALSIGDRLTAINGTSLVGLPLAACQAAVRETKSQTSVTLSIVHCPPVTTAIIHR

Binder	pKd
IKLETKKTKL [SLC15A2, Q16348]	below the threshold
PLATCDETSI [SEMA4F, O95754]	below the threshold

biological target: T2, ARHGEF11, O15085; assay: holdup assay; design: key: below the threshold = too weak to quantify, mostly under pKd 3.1 to 4; details: plain residues with an end cap or a label only (N-terminal biotin on a linker: ado-ado)
T2 sequence (O15085 42-136, limits assumed, looked up): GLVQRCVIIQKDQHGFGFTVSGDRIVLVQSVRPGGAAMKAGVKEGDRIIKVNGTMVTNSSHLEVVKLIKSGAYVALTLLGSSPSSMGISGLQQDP

Binder	pKd
IKLETKKTKL [SLC15A2, Q16348]	4.27
PLATCDETSI [SEMA4F, O95754]	below the threshold

biological target: DLG1_3, Q12959; assay: holdup assay; design: key: below the threshold = too weak to quantify, mostly under pKd 3.1 to 4; details: plain residues with an end cap or a label only (N-terminal biotin on a linker: ado-ado)
Sequence (Q12959 457-571): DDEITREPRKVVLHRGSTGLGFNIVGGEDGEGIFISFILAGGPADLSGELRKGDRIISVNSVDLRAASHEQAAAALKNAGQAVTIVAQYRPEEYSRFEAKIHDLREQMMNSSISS

Binder	pKd
IKLETKKTKL [SLC15A2, Q16348]	3.97
PLATCDETSI [SEMA4F, O95754]	below the threshold

biological target: DLG2_2, Q15700; assay: holdup assay; design: key: below the threshold = too weak to quantify, mostly under pKd 3.1 to 4; details: plain residues with an end cap or a label only (N-terminal biotin on a linker: ado-ado)
Sequence (Q15700 189-283): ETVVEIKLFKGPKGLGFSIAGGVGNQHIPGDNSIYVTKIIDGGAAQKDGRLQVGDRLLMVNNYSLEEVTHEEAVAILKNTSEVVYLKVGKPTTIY

Binder	pKd
IKLETKKTKL [SLC15A2, Q16348]	3.66
PLATCDETSI [SEMA4F, O95754]	below the threshold

biological target: FRMPD2_2, Q68DX3; assay: holdup assay; design: key: below the threshold = too weak to quantify, mostly under pKd 3.1 to 4; details: plain residues with an end cap or a label only (N-terminal biotin on a linker: ado-ado)
Sequence (Q68DX3 944-1038): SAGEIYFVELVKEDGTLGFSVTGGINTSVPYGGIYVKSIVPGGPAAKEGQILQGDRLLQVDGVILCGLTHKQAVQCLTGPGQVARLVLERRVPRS

Binder	pKd
IKLETKKTKL [SLC15A2, Q16348]	below the threshold
PLATCDETSI [SEMA4F, O95754]	3.53

biological target: T3, GRIP1_4, Q9Y3R0; assay: holdup assay; design: key: below the threshold = too weak to quantify, mostly under pKd 3.1 to 4; details: plain residues with an end cap or a label only (N-terminal biotin on a linker: ado-ado)
T3 sequence (Q9Y3R0 467-571, limits assumed, looked up): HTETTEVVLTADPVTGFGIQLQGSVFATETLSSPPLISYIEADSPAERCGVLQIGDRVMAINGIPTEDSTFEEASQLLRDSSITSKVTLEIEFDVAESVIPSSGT

Binder	pKd
IKLETKKTKL [SLC15A2, Q16348]	below the threshold
PLATCDETSI [SEMA4F, O95754]	below the threshold

biological target: T4, HTRA4, P83105; assay: holdup assay; design: key: below the threshold = too weak to quantify, mostly under pKd 3.1 to 4; details: plain residues with an end cap or a label only (N-terminal biotin on a linker: ado-ado)
T4 sequence (P83105 378-476, limits assumed, looked up): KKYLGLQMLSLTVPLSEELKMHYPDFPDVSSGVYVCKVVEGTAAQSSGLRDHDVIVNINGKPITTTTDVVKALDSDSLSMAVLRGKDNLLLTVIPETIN

Binder	pKd
IKLETKKTKL [SLC15A2, Q16348]	3.99
PLATCDETSI [SEMA4F, O95754]	below the threshold

biological target: IL16_4, Q14005; assay: holdup assay; design: key: below the threshold = too weak to quantify, mostly under pKd 3.1 to 4; details: plain residues with an end cap or a label only (N-terminal biotin on a linker: ado-ado)
Sequence (Q14005 1229-1329): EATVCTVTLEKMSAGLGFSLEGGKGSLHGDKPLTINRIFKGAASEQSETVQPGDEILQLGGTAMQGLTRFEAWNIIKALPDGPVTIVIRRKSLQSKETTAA

Binder	pKd
IKLETKKTKL [SLC15A2, Q16348]	3.72
PLATCDETSI [SEMA4F, O95754]	below the threshold

biological target: Inadl_3, Q8NI35; assay: holdup assay; design: key: below the threshold = too weak to quantify, mostly under pKd 3.1 to 4; details: plain residues with an end cap or a label only (N-terminal biotin on a linker: ado-ado)
Sequence (Q8NI35 359-469): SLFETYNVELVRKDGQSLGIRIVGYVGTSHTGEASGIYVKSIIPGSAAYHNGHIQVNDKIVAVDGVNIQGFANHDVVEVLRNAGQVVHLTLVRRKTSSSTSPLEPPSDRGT

Binder	pKd
IKLETKKTKL [SLC15A2, Q16348]	below the threshold
PLATCDETSI [SEMA4F, O95754]	below the threshold

biological target: Inadl_6, Q8NI35; assay: holdup assay; design: key: below the threshold = too weak to quantify, mostly under pKd 3.1 to 4; details: plain residues with an end cap or a label only (N-terminal biotin on a linker: ado-ado)
Sequence (Q8NI35 1058-1167): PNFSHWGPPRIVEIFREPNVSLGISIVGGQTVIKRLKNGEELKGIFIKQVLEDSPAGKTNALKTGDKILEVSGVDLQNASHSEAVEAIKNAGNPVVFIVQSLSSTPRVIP

Binder	pKd
IKLETKKTKL [SLC15A2, Q16348]	below the threshold
PLATCDETSI [SEMA4F, O95754]	below the threshold

biological target: LAP2, Q96RT1; assay: holdup assay; design: key: below the threshold = too weak to quantify, mostly under pKd 3.1 to 4; details: plain residues with an end cap or a label only (N-terminal biotin on a linker: ado-ado)
Sequence (Q96RT1 other isoform, or with tags, fused parts or gaps): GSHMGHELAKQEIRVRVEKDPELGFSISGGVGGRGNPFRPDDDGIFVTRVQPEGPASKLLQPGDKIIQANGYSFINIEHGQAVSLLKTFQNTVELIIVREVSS

Binder	pKd
IKLETKKTKL [SLC15A2, Q16348]	below the threshold
PLATCDETSI [SEMA4F, O95754]	below the threshold

biological target: T5, LIN7C, Q9NUP9; assay: holdup assay; design: key: below the threshold = too weak to quantify, mostly under pKd 3.1 to 4; details: plain residues with an end cap or a label only (N-terminal biotin on a linker: ado-ado)
T5 sequence (Q9NUP9 88-185, limits assumed, looked up): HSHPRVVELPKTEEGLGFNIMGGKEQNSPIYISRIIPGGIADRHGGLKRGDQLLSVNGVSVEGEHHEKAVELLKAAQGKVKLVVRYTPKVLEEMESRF

Binder	pKd
IKLETKKTKL [SLC15A2, Q16348]	below the threshold
PLATCDETSI [SEMA4F, O95754]	below the threshold

biological target: LNX1_2, Q8TBB1; assay: holdup assay; design: key: below the threshold = too weak to quantify, mostly under pKd 3.1 to 4; details: plain residues with an end cap or a label only (N-terminal biotin on a linker: ado-ado)
Sequence (Q8TBB1 371-470): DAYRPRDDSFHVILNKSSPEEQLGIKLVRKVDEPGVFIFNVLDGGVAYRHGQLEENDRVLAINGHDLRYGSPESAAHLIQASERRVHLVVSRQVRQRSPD

Binder	pKd
IKLETKKTKL [SLC15A2, Q16348]	below the threshold
PLATCDETSI [SEMA4F, O95754]	below the threshold

biological target: LNX1_3, Q8TBB1; assay: holdup assay; design: key: below the threshold = too weak to quantify, mostly under pKd 3.1 to 4; details: plain residues with an end cap or a label only (N-terminal biotin on a linker: ado-ado)
Sequence (Q8TBB1 500-596): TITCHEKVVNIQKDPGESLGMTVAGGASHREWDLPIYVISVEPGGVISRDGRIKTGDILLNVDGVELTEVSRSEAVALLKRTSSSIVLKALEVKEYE

Binder	pKd
IKLETKKTKL [SLC15A2, Q16348]	below the threshold
PLATCDETSI [SEMA4F, O95754]	below the threshold

biological target: T6, LNX2_3, Q8N448; assay: holdup assay; design: key: below the threshold = too weak to quantify, mostly under pKd 3.1 to 4; details: plain residues with an end cap or a label only (N-terminal biotin on a linker: ado-ado)
T6 sequence (Q8N448 463-564, limits assumed, looked up): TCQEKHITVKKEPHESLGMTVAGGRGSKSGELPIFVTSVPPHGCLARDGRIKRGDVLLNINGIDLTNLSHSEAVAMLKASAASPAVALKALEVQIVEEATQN

Binder	pKd
IKLETKKTKL [SLC15A2, Q16348]	below the threshold
PLATCDETSI [SEMA4F, O95754]	below the threshold

biological target: MAGI2_4, Q86UL8; assay: holdup assay; design: key: below the threshold = too weak to quantify, mostly under pKd 3.1 to 4; details: plain residues with an end cap or a label only (N-terminal biotin on a linker: ado-ado)
Sequence (Q86UL8 772-865): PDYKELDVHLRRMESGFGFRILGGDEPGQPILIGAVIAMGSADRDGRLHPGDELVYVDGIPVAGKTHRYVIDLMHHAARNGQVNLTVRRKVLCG

Binder	pKd
IKLETKKTKL [SLC15A2, Q16348]	below the threshold
PLATCDETSI [SEMA4F, O95754]	below the threshold

biological target: T7, NHERF3_4, Q5T2W1; assay: holdup assay; design: key: below the threshold = too weak to quantify, mostly under pKd 3.1 to 4; details: plain residues with an end cap or a label only (N-terminal biotin on a linker: ado-ado)
T7 sequence (Q5T2W1 373-468, limits assumed, looked up): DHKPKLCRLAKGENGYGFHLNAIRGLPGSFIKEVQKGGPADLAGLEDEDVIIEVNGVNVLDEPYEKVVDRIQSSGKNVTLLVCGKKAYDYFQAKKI

Binder	pKd
IKLETKKTKL [SLC15A2, Q16348]	4.77
PLATCDETSI [SEMA4F, O95754]	below the threshold

biological target: T8, PDZD2_2, O15018; assay: holdup assay; design: key: below the threshold = too weak to quantify, mostly under pKd 3.1 to 4; details: plain residues with an end cap or a label only (N-terminal biotin on a linker: ado-ado)
T8 sequence (O15018 329-429, limits assumed, looked up): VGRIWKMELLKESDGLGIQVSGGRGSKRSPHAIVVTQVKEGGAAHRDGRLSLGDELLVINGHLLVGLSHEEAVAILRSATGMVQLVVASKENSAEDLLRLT

Binder	pKd
IKLETKKTKL [SLC15A2, Q16348]	below the threshold
PLATCDETSI [SEMA4F, O95754]	4.47

biological target: T9, PDZRN3_1, Q9UPQ7; assay: holdup assay; design: key: below the threshold = too weak to quantify, mostly under pKd 3.1 to 4; details: plain residues with an end cap or a label only (N-terminal biotin on a linker: ado-ado)
T9 sequence (Q9UPQ7 244-349, limits assumed, looked up): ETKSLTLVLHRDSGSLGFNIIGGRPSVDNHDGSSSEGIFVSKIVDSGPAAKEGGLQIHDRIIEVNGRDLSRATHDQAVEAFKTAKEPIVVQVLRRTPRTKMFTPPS

Binder	pKd
IKLETKKTKL [SLC15A2, Q16348]	below the threshold
PLATCDETSI [SEMA4F, O95754]	4.03

biological target: SCRIB_2, Q14160; assay: holdup assay; design: key: below the threshold = too weak to quantify, mostly under pKd 3.1 to 4; details: plain residues with an end cap or a label only (N-terminal biotin on a linker: ado-ado)
Sequence (Q14160 857-960): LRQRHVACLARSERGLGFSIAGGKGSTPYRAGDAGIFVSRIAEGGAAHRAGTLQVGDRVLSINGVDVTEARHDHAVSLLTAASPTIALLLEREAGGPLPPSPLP

Binder	pKd
IKLETKKTKL [SLC15A2, Q16348]	below the threshold
PLATCDETSI [SEMA4F, O95754]	4.39

biological target: T10, SNTB1, Q13884; assay: holdup assay; design: key: below the threshold = too weak to quantify, mostly under pKd 3.1 to 4; details: plain residues with an end cap or a label only (N-terminal biotin on a linker: ado-ado)
T10 sequence (Q13884 107-205, limits assumed, looked up): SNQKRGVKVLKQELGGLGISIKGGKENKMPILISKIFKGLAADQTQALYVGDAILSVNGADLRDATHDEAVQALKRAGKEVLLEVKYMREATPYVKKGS

Binder	pKd
IKLETKKTKL [SLC15A2, Q16348]	3.71
PLATCDETSI [SEMA4F, O95754]	4.51

biological target: T11, SNTG2, Q9NY99; assay: holdup assay; design: key: below the threshold = too weak to quantify, mostly under pKd 3.1 to 4; details: plain residues with an end cap or a label only (N-terminal biotin on a linker: ado-ado)
T11 sequence (Q9NY99 68-166, limits assumed, looked up): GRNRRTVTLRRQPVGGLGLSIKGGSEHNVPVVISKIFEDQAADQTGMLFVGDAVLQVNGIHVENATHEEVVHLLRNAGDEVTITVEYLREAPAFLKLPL

Binder	pKd
IKLETKKTKL [SLC15A2, Q16348]	3.62
PLATCDETSI [SEMA4F, O95754]	4.55

biological target: SNX27, Q96L92; assay: holdup assay; design: key: below the threshold = too weak to quantify, mostly under pKd 3.1 to 4; details: plain residues with an end cap or a label only (N-terminal biotin on a linker: ado-ado)

Binder	pKd
IKLETKKTKL [SLC15A2, Q16348]	3.94
PLATCDETSI [SEMA4F, O95754]	5.26

biological target: T12, TIAM2, Q8IVF5; assay: holdup assay; design: key: below the threshold = too weak to quantify, mostly under pKd 3.1 to 4; details: plain residues with an end cap or a label only (N-terminal biotin on a linker: ado-ado)
T12 sequence (Q8IVF5 885-986, limits assumed, looked up): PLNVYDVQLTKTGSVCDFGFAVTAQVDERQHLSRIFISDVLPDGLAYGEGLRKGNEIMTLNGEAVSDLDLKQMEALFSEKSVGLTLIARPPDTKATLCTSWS

Binder	pKd
IKLETKKTKL [SLC15A2, Q16348]	below the threshold
PLATCDETSI [SEMA4F, O95754]	4.08

biological target: TJP1_3, Q07157; assay: holdup assay; design: key: below the threshold = too weak to quantify, mostly under pKd 3.1 to 4; details: plain residues with an end cap or a label only (N-terminal biotin on a linker: ado-ado)
Sequence (Q07157 416-512): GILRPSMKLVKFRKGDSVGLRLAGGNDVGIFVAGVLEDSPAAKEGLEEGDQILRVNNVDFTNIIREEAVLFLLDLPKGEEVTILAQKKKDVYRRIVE

Binder	pKd
IKLETKKTKL [SLC15A2, Q16348]	3.54
PLATCDETSI [SEMA4F, O95754]	below the threshold
